From patent US20210388087A1 (Chugai, published 2021)

Biological target: T1, Human CD137 ECD (human)
T1 construct: also called 4-1BB
Experiment: SPR, vs parent H183/L072

T1 sequence (chain, as listed by the source limits assumed): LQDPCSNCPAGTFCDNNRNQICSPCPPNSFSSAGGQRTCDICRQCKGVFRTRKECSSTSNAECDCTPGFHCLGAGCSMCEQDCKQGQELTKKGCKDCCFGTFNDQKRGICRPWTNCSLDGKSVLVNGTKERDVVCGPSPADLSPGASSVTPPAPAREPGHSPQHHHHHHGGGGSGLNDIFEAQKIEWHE

fold change of affinity | Binder
0.5 fold | dBBDu183H L100dV / dBBDu072L (antibody, name in Kabat numbering, V domains shown, as m1, one VH change) VH: QVQLVESGGGLVQPGRSLRLSCAASGFTFSNAWMHWVRQAPGKGLEWVAQIKDKGNAYAAYYAPSVKGRFTISRDDSKNSIYLQMNSLKTEDTAVYYCHYVHYASASTVVPAFGVDAWGQGTTVTVSS VL: DIVMTQSPLSLPVTPGEPASISCQASQELVHMNRNTYLHWYQQKPGQAPRLLIYKVSNRFPGVPDRFSGSGSGTDFTLKISRVEAEDVGVYYCAQGTSVPFTFGQGTKLEIK
0.4 fold | dBBDu183H P100eG / dBBDu072L (antibody, name in Kabat numbering, V domains shown, as m1, one VH change) VH: QVQLVESGGGLVQPGRSLRLSCAASGFTFSNAWMHWVRQAPGKGLEWVAQIKDKGNAYAAYYAPSVKGRFTISRDDSKNSIYLQMNSLKTEDTAVYYCHYVHYASASTVLGAFGVDAWGQGTTVTVSS VL: DIVMTQSPLSLPVTPGEPASISCQASQELVHMNRNTYLHWYQQKPGQAPRLLIYKVSNRFPGVPDRFSGSGSGTDFTLKISRVEAEDVGVYYCAQGTSVPFTFGQGTKLEIK
1 fold | dBBDu183H P61G / dBBDu072L (antibody, name in Kabat numbering, V domains shown, as m1, one VH change) VH: QVQLVESGGGLVQPGRSLRLSCAASGFTFSNAWMHWVRQAPGKGLEWVAQIKDKGNAYAAYYAGSVKGRFTISRDDSKNSIYLQMNSLKTEDTAVYYCHYVHYASASTVLPAFGVDAWGQGTTVTVSS VL: DIVMTQSPLSLPVTPGEPASISCQASQELVHMNRNTYLHWYQQKPGQAPRLLIYKVSNRFPGVPDRFSGSGSGTDFTLKISRVEAEDVGVYYCAQGTSVPFTFGQGTKLEIK
0.7 fold | dBBDu183H P61D / dBBDu072L (antibody, name in Kabat numbering, V domains shown, as m1, one VH change) VH: QVQLVESGGGLVQPGRSLRLSCAASGFTFSNAWMHWVRQAPGKGLEWVAQIKDKGNAYAAYYADSVKGRFTISRDDSKNSIYLQMNSLKTEDTAVYYCHYVHYASASTVLPAFGVDAWGQGTTVTVSS VL: DIVMTQSPLSLPVTPGEPASISCQASQELVHMNRNTYLHWYQQKPGQAPRLLIYKVSNRFPGVPDRFSGSGSGTDFTLKISRVEAEDVGVYYCAQGTSVPFTFGQGTKLEIK
0.3 fold | dBBDu183H P100eK / dBBDu072L (antibody, name in Kabat numbering, V domains shown, as m1, one VH change) VH: QVQLVESGGGLVQPGRSLRLSCAASGFTFSNAWMHWVRQAPGKGLEWVAQIKDKGNAYAAYYAPSVKGRFTISRDDSKNSIYLQMNSLKTEDTAVYYCHYVHYASASTVLKAFGVDAWGQGTTVTVSS VL: DIVMTQSPLSLPVTPGEPASISCQASQELVHMNRNTYLHWYQQKPGQAPRLLIYKVSNRFPGVPDRFSGSGSGTDFTLKISRVEAEDVGVYYCAQGTSVPFTFGQGTKLEIK
0.8 fold | dBBDu183H P61K / dBBDu072L (antibody, name in Kabat numbering, V domains shown, as m1, one VH change) VH: QVQLVESGGGLVQPGRSLRLSCAASGFTFSNAWMHWVRQAPGKGLEWVAQIKDKGNAYAAYYAKSVKGRFTISRDDSKNSIYLQMNSLKTEDTAVYYCHYVHYASASTVLPAFGVDAWGQGTTVTVSS VL: DIVMTQSPLSLPVTPGEPASISCQASQELVHMNRNTYLHWYQQKPGQAPRLLIYKVSNRFPGVPDRFSGSGSGTDFTLKISRVEAEDVGVYYCAQGTSVPFTFGQGTKLEIK
1.2 fold | dBBDu183H P61N / dBBDu072L (antibody, name in Kabat numbering, V domains shown, as m1, one VH change) VH: QVQLVESGGGLVQPGRSLRLSCAASGFTFSNAWMHWVRQAPGKGLEWVAQIKDKGNAYAAYYANSVKGRFTISRDDSKNSIYLQMNSLKTEDTAVYYCHYVHYASASTVLPAFGVDAWGQGTTVTVSS VL: DIVMTQSPLSLPVTPGEPASISCQASQELVHMNRNTYLHWYQQKPGQAPRLLIYKVSNRFPGVPDRFSGSGSGTDFTLKISRVEAEDVGVYYCAQGTSVPFTFGQGTKLEIK
0.9 fold | dBBDu183H P61H / dBBDu072L (antibody, name in Kabat numbering, V domains shown, as m1, one VH change) VH: QVQLVESGGGLVQPGRSLRLSCAASGFTFSNAWMHWVRQAPGKGLEWVAQIKDKGNAYAAYYAHSVKGRFTISRDDSKNSIYLQMNSLKTEDTAVYYCHYVHYASASTVLPAFGVDAWGQGTTVTVSS VL: DIVMTQSPLSLPVTPGEPASISCQASQELVHMNRNTYLHWYQQKPGQAPRLLIYKVSNRFPGVPDRFSGSGSGTDFTLKISRVEAEDVGVYYCAQGTSVPFTFGQGTKLEIK
0.6 fold | dBBDu183H P61Q / dBBDu072L (antibody, name in Kabat numbering, V domains shown, as m1, one VH change) VH: QVQLVESGGGLVQPGRSLRLSCAASGFTFSNAWMHWVRQAPGKGLEWVAQIKDKGNAYAAYYAQSVKGRFTISRDDSKNSIYLQMNSLKTEDTAVYYCHYVHYASASTVLPAFGVDAWGQGTTVTVSS VL: DIVMTQSPLSLPVTPGEPASISCQASQELVHMNRNTYLHWYQQKPGQAPRLLIYKVSNRFPGVPDRFSGSGSGTDFTLKISRVEAEDVGVYYCAQGTSVPFTFGQGTKLEIK
0.8 fold | dBBDu183H P100eE / dBBDu072L (antibody, name in Kabat numbering, V domains shown, as m1, one VH change) VH: QVQLVESGGGLVQPGRSLRLSCAASGFTFSNAWMHWVRQAPGKGLEWVAQIKDKGNAYAAYYAPSVKGRFTISRDDSKNSIYLQMNSLKTEDTAVYYCHYVHYASASTVLEAFGVDAWGQGTTVTVSS VL: DIVMTQSPLSLPVTPGEPASISCQASQELVHMNRNTYLHWYQQKPGQAPRLLIYKVSNRFPGVPDRFSGSGSGTDFTLKISRVEAEDVGVYYCAQGTSVPFTFGQGTKLEIK
1.1 fold | dBBDu183H P61S / dBBDu072L (antibody, name in Kabat numbering, V domains shown, as m1, one VH change) VH: QVQLVESGGGLVQPGRSLRLSCAASGFTFSNAWMHWVRQAPGKGLEWVAQIKDKGNAYAAYYASSVKGRFTISRDDSKNSIYLQMNSLKTEDTAVYYCHYVHYASASTVLPAFGVDAWGQGTTVTVSS VL: DIVMTQSPLSLPVTPGEPASISCQASQELVHMNRNTYLHWYQQKPGQAPRLLIYKVSNRFPGVPDRFSGSGSGTDFTLKISRVEAEDVGVYYCAQGTSVPFTFGQGTKLEIK
0.7 fold | dBBDu183H P61E / dBBDu072L (antibody, name in Kabat numbering, V domains shown, as m1, one VH change) VH: QVQLVESGGGLVQPGRSLRLSCAASGFTFSNAWMHWVRQAPGKGLEWVAQIKDKGNAYAAYYAESVKGRFTISRDDSKNSIYLQMNSLKTEDTAVYYCHYVHYASASTVLPAFGVDAWGQGTTVTVSS VL: DIVMTQSPLSLPVTPGEPASISCQASQELVHMNRNTYLHWYQQKPGQAPRLLIYKVSNRFPGVPDRFSGSGSGTDFTLKISRVEAEDVGVYYCAQGTSVPFTFGQGTKLEIK
1.4 fold | dBBDu183H P61T / dBBDu072L (antibody, name in Kabat numbering, V domains shown, as m1, one VH change) VH: QVQLVESGGGLVQPGRSLRLSCAASGFTFSNAWMHWVRQAPGKGLEWVAQIKDKGNAYAAYYATSVKGRFTISRDDSKNSIYLQMNSLKTEDTAVYYCHYVHYASASTVLPAFGVDAWGQGTTVTVSS VL: DIVMTQSPLSLPVTPGEPASISCQASQELVHMNRNTYLHWYQQKPGQAPRLLIYKVSNRFPGVPDRFSGSGSGTDFTLKISRVEAEDVGVYYCAQGTSVPFTFGQGTKLEIK
0.2 fold | dBBDu183H P100eN / dBBDu072L (antibody, name in Kabat numbering, V domains shown, as m1, one VH change) VH: QVQLVESGGGLVQPGRSLRLSCAASGFTFSNAWMHWVRQAPGKGLEWVAQIKDKGNAYAAYYAPSVKGRFTISRDDSKNSIYLQMNSLKTEDTAVYYCHYVHYASASTVLNAFGVDAWGQGTTVTVSS VL: DIVMTQSPLSLPVTPGEPASISCQASQELVHMNRNTYLHWYQQKPGQAPRLLIYKVSNRFPGVPDRFSGSGSGTDFTLKISRVEAEDVGVYYCAQGTSVPFTFGQGTKLEIK
1 fold | dBBDu183H P61R / dBBDu072L (antibody, name in Kabat numbering, V domains shown, as m1, one VH change) VH: QVQLVESGGGLVQPGRSLRLSCAASGFTFSNAWMHWVRQAPGKGLEWVAQIKDKGNAYAAYYARSVKGRFTISRDDSKNSIYLQMNSLKTEDTAVYYCHYVHYASASTVLPAFGVDAWGQGTTVTVSS VL: DIVMTQSPLSLPVTPGEPASISCQASQELVHMNRNTYLHWYQQKPGQAPRLLIYKVSNRFPGVPDRFSGSGSGTDFTLKISRVEAEDVGVYYCAQGTSVPFTFGQGTKLEIK
0.2 fold | dBBDu183H L100dW / dBBDu072L (antibody, name in Kabat numbering, V domains shown, as m1, one VH change) VH: QVQLVESGGGLVQPGRSLRLSCAASGFTFSNAWMHWVRQAPGKGLEWVAQIKDKGNAYAAYYAPSVKGRFTISRDDSKNSIYLQMNSLKTEDTAVYYCHYVHYASASTVWPAFGVDAWGQGTTVTVSS VL: DIVMTQSPLSLPVTPGEPASISCQASQELVHMNRNTYLHWYQQKPGQAPRLLIYKVSNRFPGVPDRFSGSGSGTDFTLKISRVEAEDVGVYYCAQGTSVPFTFGQGTKLEIK
0.8 fold | dBBDu183H P61W / dBBDu072L (antibody, name in Kabat numbering, V domains shown, as m1, one VH change) VH: QVQLVESGGGLVQPGRSLRLSCAASGFTFSNAWMHWVRQAPGKGLEWVAQIKDKGNAYAAYYAWSVKGRFTISRDDSKNSIYLQMNSLKTEDTAVYYCHYVHYASASTVLPAFGVDAWGQGTTVTVSS VL: DIVMTQSPLSLPVTPGEPASISCQASQELVHMNRNTYLHWYQQKPGQAPRLLIYKVSNRFPGVPDRFSGSGSGTDFTLKISRVEAEDVGVYYCAQGTSVPFTFGQGTKLEIK
0.3 fold | dBBDu183H P100eD / dBBDu072L (antibody, name in Kabat numbering, V domains shown, as m1, one VH change) VH: QVQLVESGGGLVQPGRSLRLSCAASGFTFSNAWMHWVRQAPGKGLEWVAQIKDKGNAYAAYYAPSVKGRFTISRDDSKNSIYLQMNSLKTEDTAVYYCHYVHYASASTVLDAFGVDAWGQGTTVTVSS VL: DIVMTQSPLSLPVTPGEPASISCQASQELVHMNRNTYLHWYQQKPGQAPRLLIYKVSNRFPGVPDRFSGSGSGTDFTLKISRVEAEDVGVYYCAQGTSVPFTFGQGTKLEIK
0.7 fold | dBBDu183H P61Y / dBBDu072L (antibody, name in Kabat numbering, V domains shown, as m1, one VH change) VH: QVQLVESGGGLVQPGRSLRLSCAASGFTFSNAWMHWVRQAPGKGLEWVAQIKDKGNAYAAYYAYSVKGRFTISRDDSKNSIYLQMNSLKTEDTAVYYCHYVHYASASTVLPAFGVDAWGQGTTVTVSS VL: DIVMTQSPLSLPVTPGEPASISCQASQELVHMNRNTYLHWYQQKPGQAPRLLIYKVSNRFPGVPDRFSGSGSGTDFTLKISRVEAEDVGVYYCAQGTSVPFTFGQGTKLEIK
0.1 fold | dBBDu183H P100eH / dBBDu072L (antibody, name in Kabat numbering, V domains shown, as m1, one VH change) VH: QVQLVESGGGLVQPGRSLRLSCAASGFTFSNAWMHWVRQAPGKGLEWVAQIKDKGNAYAAYYAPSVKGRFTISRDDSKNSIYLQMNSLKTEDTAVYYCHYVHYASASTVLHAFGVDAWGQGTTVTVSS VL: DIVMTQSPLSLPVTPGEPASISCQASQELVHMNRNTYLHWYQQKPGQAPRLLIYKVSNRFPGVPDRFSGSGSGTDFTLKISRVEAEDVGVYYCAQGTSVPFTFGQGTKLEIK
0.7 fold | dBBDu183H P61F / dBBDu072L (antibody, name in Kabat numbering, V domains shown, as m1, one VH change) VH: QVQLVESGGGLVQPGRSLRLSCAASGFTFSNAWMHWVRQAPGKGLEWVAQIKDKGNAYAAYYAFSVKGRFTISRDDSKNSIYLQMNSLKTEDTAVYYCHYVHYASASTVLPAFGVDAWGQGTTVTVSS VL: DIVMTQSPLSLPVTPGEPASISCQASQELVHMNRNTYLHWYQQKPGQAPRLLIYKVSNRFPGVPDRFSGSGSGTDFTLKISRVEAEDVGVYYCAQGTSVPFTFGQGTKLEIK
